Consider 3 molecules from article PMC5887321.

Where two headings read alike, the source gives them in different places.

Common to all, as to test: SEC-SAXS
Background: Size exclusion chromatography separates by hydrodynamic size, large species first.

The target of data set [1] is T1, DC-RIG-I (CARDs-truncated) (human, UniProt O95786 239-925).
T1 sequence: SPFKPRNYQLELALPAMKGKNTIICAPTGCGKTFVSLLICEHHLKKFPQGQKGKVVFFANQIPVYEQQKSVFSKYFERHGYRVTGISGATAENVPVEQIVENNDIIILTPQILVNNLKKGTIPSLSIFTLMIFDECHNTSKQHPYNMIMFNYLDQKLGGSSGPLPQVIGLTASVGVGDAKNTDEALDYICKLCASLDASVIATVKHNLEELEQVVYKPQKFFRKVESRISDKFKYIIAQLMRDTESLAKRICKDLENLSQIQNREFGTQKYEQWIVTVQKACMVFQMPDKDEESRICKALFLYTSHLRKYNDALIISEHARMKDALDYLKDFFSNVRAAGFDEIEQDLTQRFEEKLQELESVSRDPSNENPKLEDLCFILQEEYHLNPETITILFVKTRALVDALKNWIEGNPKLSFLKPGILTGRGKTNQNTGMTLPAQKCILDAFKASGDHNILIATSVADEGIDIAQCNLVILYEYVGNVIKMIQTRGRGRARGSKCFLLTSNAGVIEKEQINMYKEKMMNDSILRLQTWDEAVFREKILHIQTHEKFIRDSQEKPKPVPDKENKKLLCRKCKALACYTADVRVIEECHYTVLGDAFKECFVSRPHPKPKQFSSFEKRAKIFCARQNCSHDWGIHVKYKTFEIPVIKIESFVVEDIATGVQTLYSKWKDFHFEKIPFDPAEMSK

For data set [2], the target named is T2, FL-RIG-I (human, UniProt O95786 1-925).
T2 sequence: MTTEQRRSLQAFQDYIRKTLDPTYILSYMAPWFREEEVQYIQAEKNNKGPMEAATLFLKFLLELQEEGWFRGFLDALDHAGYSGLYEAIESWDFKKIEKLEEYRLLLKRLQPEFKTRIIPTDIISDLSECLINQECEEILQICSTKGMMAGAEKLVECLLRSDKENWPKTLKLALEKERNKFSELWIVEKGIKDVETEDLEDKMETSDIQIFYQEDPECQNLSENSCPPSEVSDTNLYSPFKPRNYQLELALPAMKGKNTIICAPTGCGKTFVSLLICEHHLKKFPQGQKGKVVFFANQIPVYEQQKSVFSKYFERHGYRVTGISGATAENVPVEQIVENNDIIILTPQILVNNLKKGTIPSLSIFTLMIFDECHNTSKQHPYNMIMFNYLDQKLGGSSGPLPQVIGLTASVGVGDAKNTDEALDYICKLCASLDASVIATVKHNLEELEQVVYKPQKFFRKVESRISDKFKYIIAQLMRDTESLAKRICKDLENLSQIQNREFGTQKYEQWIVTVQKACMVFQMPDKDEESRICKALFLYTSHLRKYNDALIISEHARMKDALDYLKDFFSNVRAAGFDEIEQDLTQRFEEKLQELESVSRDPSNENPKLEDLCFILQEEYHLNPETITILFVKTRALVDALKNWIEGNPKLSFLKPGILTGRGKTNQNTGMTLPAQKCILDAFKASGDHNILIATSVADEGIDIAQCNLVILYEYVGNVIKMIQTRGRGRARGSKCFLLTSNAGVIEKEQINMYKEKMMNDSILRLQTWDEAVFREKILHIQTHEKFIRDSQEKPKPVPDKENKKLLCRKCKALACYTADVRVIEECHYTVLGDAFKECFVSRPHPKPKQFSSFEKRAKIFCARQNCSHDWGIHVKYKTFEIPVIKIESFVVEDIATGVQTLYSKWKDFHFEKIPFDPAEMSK

Data set [3] has as its target T1, DC-RIG-I (CARDs-truncated). This is another data set of the same source.
For data set [4], the target named is T2, FL-RIG-I. The source holds these as a separate data set.
For data set [5], the target named is T1, DC-RIG-I (CARDs-truncated). The source holds these as a separate data set.
Data set [6] addresses T2, FL-RIG-I. The source holds these as a separate data set.

B1: 8 bp-long (self-annealed 8 bp, SEC peak 2) (dsRNA)
RNA 1: GGCGCGGCUUCGGCCGCGCC
RNA 2: GGCGCGGCUUCGGCCGCGCC
modifications: 5'-triphosphate on each strand
Consider B1, for which the binding result (in data set [1]; with FL-RIG-I [2]) was “binds” throughout.

B2: 5'ppp 8 bp hairpin (8 bp, SEC peak 1) (structured_RNA)
RNA: GGCGCGGCUUCGGCCGCGCC
modifications: 5'-triphosphate
For B2, the binding result (in data set [3]; in the data set with FL-RIG-I [4]) was “binds” throughout.

B3: 5'ppp 10 bp hairpin (10 bp) (structured_RNA)
RNA: GGACGUACGUUUCGACGUACGUCC
modifications: 5'-triphosphate
For B3, the binding result (in data set [5]; with FL-RIG-I [6]) was “binds” in each case.
